Reference: US20200199204A1 (UNITED STATES OF AMERICA AS REPRESENTED BY THE SECRETARY …, published 2020)

What was measured:
Experiment in all cases: cell-based or functional assay
HIV-1 Env of Q842.d12 = HIV-1 Env of Q842.d12 (HIV-1)
HIV-1 Env of UG037.8 = HIV-1 Env of UG037.8 (HIV-1)
HIV-1 Env of MB539.2B7 = HIV-1 Env of MB539.2B7 (HIV-1)
HIV-1 Env of ZM197.7 = HIV-1 Env of ZM197.7 (HIV-1)
HIV-1 Env of ZM249.1 = HIV-1 Env of ZM249.1 (HIV-1)
HIV-1 Env of Q23.17 = HIV-1 Env of Q23.17 (HIV-1)
HIV-1 Env of SC422.8 = HIV-1 Env of SC422.8 (HIV-1)
HIV-1 Env of RW020.2 = HIV-1 Env of RW020.2 (HIV-1)
HIV-1 Env of DU156.12 = HIV-1 Env of DU156.12 (HIV-1)
HIV-1 Env of AC10.29 = HIV-1 Env of AC10.29 (HIV-1)
HIV-1 Env of CAAN.A2 = HIV-1 Env of CAAN.A2 (HIV-1)
HIV-1 Env of KER2018.11 = HIV-1 Env of KER2018.11 (HIV-1)
HIV-1 Env of C1080.c3 = HIV-1 Env of C1080.c3 (HIV-1)
HIV-1 Env of WITO.33 = HIV-1 Env of WITO.33 (HIV-1)
HIV-1 Env of QH0692.42 = HIV-1 Env of QH0692.42 (HIV-1)
HIV-1 Env of CM244.ec1 = HIV-1 Env of CM244.ec1 (HIV-1)
HIV-1 Env of 6535.3 = HIV-1 Env of 6535.3 (HIV-1)
HIV-1 Env of TRJO.58 = HIV-1 Env of TRJO.58 (HIV-1)
HIV-1 Env of Q461.e2 = HIV-1 Env of Q461.e2 (HIV-1)
HIV-1 Env of DU422.01 = HIV-1 Env of DU422.01 (HIV-1)
HIV-1 Env of 0260.v5.c36 = HIV-1 Env of 0260.v5.c36 (HIV-1)
HIV-1 Env of MB201 = HIV-1 Env of MB201 (HIV-1)
HIV-1 Env of ZM214.15 = HIV-1 Env of ZM214.15 (HIV-1)
HIV-1 Env of KER2008.12 = HIV-1 Env of KER2008.12 (HIV-1)
HIV-1 Env of ZM109.4 = HIV-1 Env of ZM109.4 (HIV-1)
HIV-1 Env of ZM233.6 = HIV-1 Env of ZM233.6 (HIV-1)
HIV-1 Env of Q168.a2 = HIV-1 Env of Q168.a2 (HIV-1)
HIV-1 Env of 96ZM651.02 = HIV-1 Env of 96ZM651.02 (HIV-1)
HIV-1 Env of TRO.11 = HIV-1 Env of TRO.11 (HIV-1)
HIV-1 Env of BG505.w6m = HIV-1 Env of BG505.w6m (HIV-1)
HIV-1 Env of REJO.67 = HIV-1 Env of REJO.67 (HIV-1)
HIV-1 Env of CAP256.PI = HIV-1 Env of CAP256.PI (HIV-1)
HIV-1 Env of CAP45.G3 = HIV-1 Env of CAP45.G3 (HIV-1)
HIV-1 Env of Q769.d22 = HIV-1 Env of Q769.d22 (HIV-1)
HIV-1 Env of CAP256.SU = HIV-1 Env of CAP256.SU (HIV-1)
HIV-1 Env of CAP210.E8 = HIV-1 Env of CAP210.E8 (HIV-1)
HIV-1 Env of ZM135.10a = HIV-1 Env of ZM135.10a (HIV-1)
HIV-1 Env of PVO.04 = HIV-1 Env of PVO.04 (HIV-1)
HIV-1 Env of 191821.E6.1 = HIV-1 Env of 191821.E6.1 (HIV-1)
HIV-1 Env of RHPA.7 = HIV-1 Env of RHPA.7 (HIV-1)
HIV-1 Env of DU172.17 = HIV-1 Env of DU172.17 (HIV-1)
HIV-1 Env of 3016.V5.c36 = HIV-1 Env of 3016.V5.c36 (HIV-1)
HIV-1 Env of Q259.d2.17 = HIV-1 Env of Q259.d2.17 (HIV-1)
HIV-1 Env of THRO.18 = HIV-1 Env of THRO.18 (HIV-1)
HIV-1 Env of ZM53.12 = HIV-1 Env of ZM53.12 (HIV-1)
HIV-1 Env of 6405.v4.c34 = HIV-1 Env of 6405.v4.c34 (HIV-1)
HIV-1 Env of CAP244.D3 = HIV-1 Env of CAP244.D3 (HIV-1)

B1: CAP256-VRC26.09 (antibody, V domains shown)
VH: EVQLVESGGGVVQPGRSLTLSCAASQFNFANYGMHWVRQAPGKGLEWVASISNDGTKKYHEESVWGRFTISKDNSKSTLFLQMNSLRIEDTALYFCVKDQREDECEEWWSDYYDFGRELPCRKSRGLGLAGIFDMWGHGTMVTVSS
VL: QSALTQPPSVSAAPGQKVTISCSGNSSNIGNNFVSWYQQLPGTAPKLLIYENNRRPSGIPDRFSGSKSGTSATLAISGLQTGDEADYWCAVWGVRRGAGAVFGAGTKVTVLG
**Q.** Which results are given for B1?
**A.** neutralization IC50 (HIV-1 Env of Q842.d12): 10.1 µg/mL; neutralization IC50 (HIV-1 Env of UG037.8): > 50 µg/mL; neutralization IC50 (HIV-1 Env of MB539.2B7): 40.7 µg/mL; neutralization IC50 (HIV-1 Env of ZM197.7): 0.011 µg/mL; neutralization IC50 (HIV-1 Env of ZM249.1): 0.01 µg/mL; neutralization IC50 (HIV-1 Env of Q23.17): 9.5 µg/mL; neutralization IC50 (HIV-1 Env of SC422.8): > 50 µg/mL; neutralization IC50 (HIV-1 Env of RW020.2): > 50 µg/mL; neutralization IC50 (HIV-1 Env of DU156.12): 0.016 µg/mL; neutralization IC50 (HIV-1 Env of AC10.29): > 50 µg/mL; neutralization IC50 (HIV-1 Env of CAAN.A2): > 50 µg/mL; neutralization IC50 (HIV-1 Env of KER2018.11): 0.002 µg/mL; neutralization IC50 (HIV-1 Env of C1080.c3): 0.019 µg/mL; neutralization IC50 (HIV-1 Env of WITO.33): > 50 µg/mL; neutralization IC50 (HIV-1 Env of QH0692.42): > 50 µg/mL; neutralization IC50 (HIV-1 Env of CM244.ec1): 0.105 µg/mL; neutralization IC50 (HIV-1 Env of 6535.3): > 50 µg/mL; neutralization IC50 (HIV-1 Env of TRJO.58): > 50 µg/mL; neutralization IC50 (HIV-1 Env of Q461.e2): 0.705 µg/mL; neutralization IC50 (HIV-1 Env of DU422.01): 0.023 µg/mL; neutralization IC50 (HIV-1 Env of 0260.v5.c36): > 50 µg/mL; neutralization IC50 (HIV-1 Env of MB201): > 50 µg/mL; neutralization IC50 (HIV-1 Env of ZM214.15): 0.333 µg/mL; neutralization IC50 (HIV-1 Env of KER2008.12): > 50 µg/mL; neutralization IC50 (HIV-1 Env of ZM109.4): > 50 µg/mL; neutralization IC50 (HIV-1 Env of ZM233.6): 0.001 µg/mL; neutralization IC50 (HIV-1 Env of Q168.a2): 0.181 µg/mL; neutralization IC50 (HIV-1 Env of 96ZM651.02): 0.991 µg/mL; neutralization IC50 (HIV-1 Env of TRO.11): > 50 µg/mL; neutralization IC50 (HIV-1 Env of BG505.w6m): 0.054 µg/mL; neutralization IC50 (HIV-1 Env of REJO.67): > 50 µg/mL; neutralization IC50 (HIV-1 Env of CAP256.PI): > 50 µg/mL; neutralization IC50 (HIV-1 Env of CAP45.G3): 16 µg/mL; neutralization IC50 (HIV-1 Env of Q769.d22): > 50 µg/mL; neutralization IC50 (HIV-1 Env of CAP256.SU): 0.002 µg/mL; neutralization IC50 (HIV-1 Env of CAP210.E8): 0.002 µg/mL; neutralization IC50 (HIV-1 Env of ZM135.10a): > 50 µg/mL; neutralization IC50 (HIV-1 Env of PVO.04): > 50 µg/mL; neutralization IC50 (HIV-1 Env of 191821.E6.1): 0.054 µg/mL; neutralization IC50 (HIV-1 Env of RHPA.7): > 50 µg/mL; neutralization IC50 (HIV-1 Env of DU172.17): > 50 µg/mL; neutralization IC50 (HIV-1 Env of 3016.V5.c36): 0.004 µg/mL; neutralization IC50 (HIV-1 Env of Q259.d2.17): 0.008 µg/mL; neutralization IC50 (HIV-1 Env of THRO.18): > 50 µg/mL; neutralization IC50 (HIV-1 Env of ZM53.12): 0.002 µg/mL; neutralization IC50 (HIV-1 Env of 6405.v4.c34): > 50 µg/mL; neutralization IC50 (HIV-1 Env of CAP244.D3): > 50 µg/mL
